Consider one substance from article PMC9935904.

For the assay, the target named is Lathyrus sativus β-L-ODAP synthase (LsBOS), N-terminal His-tag (Lathyrus sativus). The assay is described as follows: SPR; Biacore 8K, CM5 chip; LsBOS amine-coupled (~1700 response), LsAAE3 as analyte; single cycle kinetics at 2.4, 12, 60, 300 and 1500 nM; 10 mM Hepes pH 7.4, 150 mM NaCl, 0.05 % tween 20, 25 °C; simple Langmuir binding model. In general terms: SPR reads the build-up and loss of mass on a sensor chip optically.

pKd: −log10 of the molar value.

The substance “Lathyrus sativus acyl-activating enzyme 3 (LsAAE3), N-terminal His-tag” had a pKd of 7.01, an off-rate (koff) of 0.000361 s⁻¹, a kon of 3670 M⁻¹ s⁻¹ and a stoichiometry N of 1.

The pKd is −log10 of the Kd, conventionally taken in molar units. As usually defined, the koff is a measure of how fast the partners let go of each other. Read a high koff as a short-lived complex. A word on the kon: it is a measure of how fast the partners come together. A low value points to slower complex formation. The stoichiometry N is the number of molecules, sites or subunits per partner or assembly.
